In experiment [1] the target is ErCry4a C317A (European robin (Erithacus rubecula)). Put plainly: native MS.
Experiment [2] concerns the target ErCry4a C412A+C317A (European robin (Erithacus rubecula)). Nature of the experiment: native MS.
Experiment [3] deals with European robin cryptochrome 4a, wild type, with N-terminal 10xHis-tag (European robin (Erithacus rubecula)). Put plainly: native MS.
Experiment [4] has the same target. Nature of the experiment: native MS. This is another data set of the same source.
For experiment [5] the target is unchanged. Nature of the experiment: mass photometry.
Experiment [6] deals with ErCry4a C412A (European robin (Erithacus rubecula)). Nature of the experiment: native MS.

“And” between values parts separate entries of the source, which are not always exact repeats. Identical values can stand only once.

We go through four substances from paper doi:10.1101/2023.04.11.536350.

Broadly, the stoichiometry N is the number of molecules, sites or subunits per partner or assembly.

As for ErCry4a C317A (natural protein), the stoichiometry N in experiment [1] is 2 and 3.
ErCry4a C412A+C317A (natural protein): the stoichiometry N in experiment [2] is 2 and 3.
“European robin cryptochrome 4a, wild type, with N-terminal 10xHis-tag (natural protein)”: the stoichiometry N in experiment [3] was 3; in experiment [4] it was 2; in experiment [5], 2. In addition, in experiment [5], the percent of counts in the dimer peak was 11%.
Turning to ErCry4a C412A (natural protein), in experiment [6], the stoichiometry N is 2 and 3.
